Article PMC11418285

Legend:
[1] = molecular target: FcγRIIIa (CD16a) 158F allele (human) (UniProt P08637)
FcγRI (CD64) (human) = FcγRI (CD64) (human) (UniProt P12314)
Sequence of UniProt P12314 (P12314 16-374): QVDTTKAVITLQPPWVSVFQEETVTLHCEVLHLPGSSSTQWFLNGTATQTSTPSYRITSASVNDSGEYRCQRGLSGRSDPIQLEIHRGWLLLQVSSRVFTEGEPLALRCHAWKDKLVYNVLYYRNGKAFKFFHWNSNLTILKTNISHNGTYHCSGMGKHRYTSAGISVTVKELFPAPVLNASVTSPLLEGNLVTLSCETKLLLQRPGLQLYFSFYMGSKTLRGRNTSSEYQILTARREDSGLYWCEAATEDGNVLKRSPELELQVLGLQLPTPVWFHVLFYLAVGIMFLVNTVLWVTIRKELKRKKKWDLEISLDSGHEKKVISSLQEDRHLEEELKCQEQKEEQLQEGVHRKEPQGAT

Sequence of UniProt P08637 (P08637 17-254): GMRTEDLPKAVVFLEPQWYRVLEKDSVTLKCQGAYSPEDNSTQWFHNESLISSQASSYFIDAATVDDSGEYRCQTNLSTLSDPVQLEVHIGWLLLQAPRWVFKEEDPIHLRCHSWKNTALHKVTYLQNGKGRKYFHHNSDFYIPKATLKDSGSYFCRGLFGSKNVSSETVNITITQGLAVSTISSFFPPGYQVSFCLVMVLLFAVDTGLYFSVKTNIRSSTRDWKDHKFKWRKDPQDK

## anti-CD20 antibody with rituximab V regions, afucosylated wild-type human IgG1
[1]
  ADCC activity, Fc effector cell reporter bioassay, relative to wild-type IgG1: 201 fold

## anti-CD20 antibody with rituximab V regions, human IgG1 S239D A330L I332E
FcγRI (CD64) (human)
  ADCP activity, Fc effector cell reporter bioassay, relative to wild-type IgG1: 1.87 fold
